Source: paper PMC7617965, “Interaction with AK2A links AIFM1 to cellular energy metabolism” (Molecular cell, 2025)
No end group written: not given here.

Experiments:
[1] = target: endogenous AIFM1 (human (endogenous in HEK293)) (UniProt O95831); assay: SEC; native lysates of HEK293 cells (WT, AIFM1 KO, AIFM1 KO with AIFM1-HA, AK2 KO with AK2A or AK2B; cycloheximide 4 h in one panel) on HiLoad 16/600 Superdex 200; fractions analysed by immunoblot, in part after a thiol shift with mmPEG24
[2] = target: MIA40 (Homo sapiens) (UniProt Q8N4Q1); conditions: cited from earlier work
[3] = target: T1, AIFM1(103-613) (human, UniProt O95831 103-613); assay: cell-based or functional assay
[4] = target: T1, AIFM1(103-613); assay: SEC; AIFM1 incubated with AK2A, MIA40 or the interaction site peptides with NADH; unbound NADH removed by gel filtration; samples at 0 and 7 h analysed by gel filtration, absorbance at 280 nm; conditions: both partners purified
[5] = target: T1, AIFM1(103-613); assay: SEC; purified proteins, AIFM1 to AK2 or MIA40 1:2 to 1:4, 100 mM NaCl, 20 mM Tris/Cl pH 7.4, with 0.1 mM NADH, 20 min, 4°C, Superdex 200; conditions: both partners purified

adenylate kinase 2 (AK2), endogenous (from UniProt P54819 1-239) (enzyme)
percent of AK2 in the fractions of the complex [1]: 5%

AIFM1 (from UniProt O95831)
Kd [2]: 180 nM

B1: MIA40 WT peptide (peptide)
peptide: SYSRQEGKDRIIFVTKEDHETPSSAELVA-NH2
notes: N-terminal region of MIA40 (CHCHD4); serine stands at position 4 where MIA40 has C4; also called MIA40 peptide; source: synthetic peptide
apparent kcat of the NADH:DCIP oxidoreductase activity of AIFM1 with the peptide (3.3 μM); AIFM1 alone 0.50 s^−1 (H2O) [3]: 0.89 s⁻¹
half-life (t1/2) of the complex after removal of excess NADH [4]: > 7 h

B2: MIA40 C4S,C53S,C55S (natural protein, UniProt Q8N4Q1 1-142, looked up)
chain: MSYSRQEGKDRIIFVTKEDHETPSSAELVADDPNDPYEEHGLILPNGNINWNSPSLGGMASGPCGEQFKSAFSCFHYSTEEIKGSDCVDQFRAMQECMQKYPDLYPQEDEDEEEEREKKPAEQAEETAPIEATATKEEEGSS
notes: MIA40 (CHCHD4) with C4S, C53S and C55S; Only aa 2-20 are seen in the cryo-EM map; also called MIA40 SPS; purified MIA40; source: E. coli Rosetta2 (DE3), purified (Ni Sepharose)
stoichiometry N [5]: 2 per AIFM1 dimer
half-life (t1/2) of the complex after removal of excess NADH [4]: > 7 h

B3: AK2A WT peptide (peptide)
peptide: ATSKDLVMFI-NH2
notes: C-terminus of AK2 isoform A; serine stands where AK2A bears C232; also called AK2A peptide; source: synthetic peptide
apparent kcat of the NADH:DCIP oxidoreductase activity of AIFM1 with the peptide (3.3 μM); AIFM1 alone 0.37 s^−1 (DMSO) [3]: 0.71 s⁻¹
half-life (t1/2) of the complex after removal of excess NADH [4]: > 7 h
